# From the supplement of paper PMC10219994
# ± gives the standard deviation of the averaged measurements.
# B1: library; a variant is named by its letters at N, in order (parent)
# chain: GAGACCGCAACTGAAAAGTTGTGGNNNNNATAGTGAGTCGCTGCCTGCAAAGACACAACT
# Variants of: B1
# Test: ligation selection enrichment (abundance after / before one-round selection) (fold); higher = more template-directed ligation activity
# Conditions: with T7Psub CACGGAUGCUAAUACGACUCACUAUA; MgCl2 25 mM; 42 °C; 4 h; pH 8.5
# How it was run: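 RNA ligase library with five randomized core positions (0.75 μM, T7-transcribed) was reacted with RNA substrate (6 μM) in 50 mM EPPS pH 8.5, 25 mM MgCl2 at 42 °C for 4 h, in two independent experiments. Ligated products were PAGE-purified, reverse transcribed, barcoded by PCR and MiSeq-sequenced. Reads with quality score ≥30 at all randomized positions were counted. Enrichment was abundance after ligation divided by abundance before ligation.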
row,Variant,ligation selection enrichment
1,GAGACCGCAACTGAAAAGTTGTGGGCATGATAGTGAGTCGCTGCCTGCAAAGACACAACT,0.335 ± 0.012
2,GAGACCGCAACTGAAAAGTTGTGGACATGATAGTGAGTCGCTGCCTGCAAAGACACAACT,0.333 ± 0.015
3,GAGACCGCAACTGAAAAGTTGTGGTCATGATAGTGAGTCGCTGCCTGCAAAGACACAACT,0.1699 ± 0.0013
4,GAGACCGCAACTGAAAAGTTGTGGCCATGATAGTGAGTCGCTGCCTGCAAAGACACAACT,0.166 ± 0.043
5,GAGACCGCAACTGAAAAGTTGTGGTCATTATAGTGAGTCGCTGCCTGCAAAGACACAACT,0.327 ± 0.04
6,GAGACCGCAACTGAAAAGTTGTGGGCATTATAGTGAGTCGCTGCCTGCAAAGACACAACT,0.257 ± 0.043
7,GAGACCGCAACTGAAAAGTTGTGGCCATTATAGTGAGTCGCTGCCTGCAAAGACACAACT,0.223 ± 0.041
8,GAGACCGCAACTGAAAAGTTGTGGACATTATAGTGAGTCGCTGCCTGCAAAGACACAACT,0.209 ± 0.099
9,GAGACCGCAACTGAAAAGTTGTGGTCCAAATAGTGAGTCGCTGCCTGCAAAGACACAACT,0.0717 ± 0.015
10,GAGACCGCAACTGAAAAGTTGTGGGCCAAATAGTGAGTCGCTGCCTGCAAAGACACAACT,0.222 ± 0.045
11,GAGACCGCAACTGAAAAGTTGTGGACCAAATAGTGAGTCGCTGCCTGCAAAGACACAACT,0.144 ± 0.0063
12,GAGACCGCAACTGAAAAGTTGTGGCCCAAATAGTGAGTCGCTGCCTGCAAAGACACAACT,0.134 ± 0.007
13,GAGACCGCAACTGAAAAGTTGTGGGCCACATAGTGAGTCGCTGCCTGCAAAGACACAACT,0.176 ± 0.031
14,GAGACCGCAACTGAAAAGTTGTGGCCCACATAGTGAGTCGCTGCCTGCAAAGACACAACT,0.168 ± 0.017
15,GAGACCGCAACTGAAAAGTTGTGGACCACATAGTGAGTCGCTGCCTGCAAAGACACAACT,0.165 ± 0.0072
16,GAGACCGCAACTGAAAAGTTGTGGTCCACATAGTGAGTCGCTGCCTGCAAAGACACAACT,0.118 ± 0.043
17,GAGACCGCAACTGAAAAGTTGTGGGCCAGATAGTGAGTCGCTGCCTGCAAAGACACAACT,0.28 ± 0.021
18,GAGACCGCAACTGAAAAGTTGTGGACCAGATAGTGAGTCGCTGCCTGCAAAGACACAACT,0.207 ± 0.033
19,GAGACCGCAACTGAAAAGTTGTGGCCCAGATAGTGAGTCGCTGCCTGCAAAGACACAACT,0.145 ± 0.0045
20,GAGACCGCAACTGAAAAGTTGTGGTCCAGATAGTGAGTCGCTGCCTGCAAAGACACAACT,0.128 ± 0.027
21,GAGACCGCAACTGAAAAGTTGTGGACCATATAGTGAGTCGCTGCCTGCAAAGACACAACT,0.866 ± 0.31
22,GAGACCGCAACTGAAAAGTTGTGGCCCATATAGTGAGTCGCTGCCTGCAAAGACACAACT,0.674 ± 0.13
23,GAGACCGCAACTGAAAAGTTGTGGTCCATATAGTGAGTCGCTGCCTGCAAAGACACAACT,0.303 ± 0.096

row,Variant,ligation selection enrichment
1,GAGACCGCAACTGAAAAGTTGTGGGCCATATAGTGAGTCGCTGCCTGCAAAGACACAACT,1.25 ± 0.34
2,GAGACCGCAACTGAAAAGTTGTGGGCCCAATAGTGAGTCGCTGCCTGCAAAGACACAACT,0.209 ± 0.023
3,GAGACCGCAACTGAAAAGTTGTGGTCCCAATAGTGAGTCGCTGCCTGCAAAGACACAACT,0.209 ± 0.054
4,GAGACCGCAACTGAAAAGTTGTGGACCCAATAGTGAGTCGCTGCCTGCAAAGACACAACT,0.152 ± 0.013
5,GAGACCGCAACTGAAAAGTTGTGGCCCCAATAGTGAGTCGCTGCCTGCAAAGACACAACT,0.14 ± 0.0052
6,GAGACCGCAACTGAAAAGTTGTGGTCCCCATAGTGAGTCGCTGCCTGCAAAGACACAACT,0.279 ± 0.026
7,GAGACCGCAACTGAAAAGTTGTGGGCCCCATAGTGAGTCGCTGCCTGCAAAGACACAACT,0.227 ± 0.022
8,GAGACCGCAACTGAAAAGTTGTGGCCCCCATAGTGAGTCGCTGCCTGCAAAGACACAACT,0.199 ± 0.004
9,GAGACCGCAACTGAAAAGTTGTGGACCCCATAGTGAGTCGCTGCCTGCAAAGACACAACT,0.194 ± 0.0053
10,GAGACCGCAACTGAAAAGTTGTGGGCCCGATAGTGAGTCGCTGCCTGCAAAGACACAACT,0.803 ± 0.034
11,GAGACCGCAACTGAAAAGTTGTGGACCCGATAGTGAGTCGCTGCCTGCAAAGACACAACT,0.752 ± 0.054
12,GAGACCGCAACTGAAAAGTTGTGGCCCCGATAGTGAGTCGCTGCCTGCAAAGACACAACT,0.49 ± 0.0033
13,GAGACCGCAACTGAAAAGTTGTGGTCCCGATAGTGAGTCGCTGCCTGCAAAGACACAACT,0.46 ± 0.093
14,GAGACCGCAACTGAAAAGTTGTGGGCCCTATAGTGAGTCGCTGCCTGCAAAGACACAACT,0.424 ± 0.17
15,GAGACCGCAACTGAAAAGTTGTGGCCCCTATAGTGAGTCGCTGCCTGCAAAGACACAACT,0.419 ± 0.21
16,GAGACCGCAACTGAAAAGTTGTGGACCCTATAGTGAGTCGCTGCCTGCAAAGACACAACT,0.379 ± 0.15
17,GAGACCGCAACTGAAAAGTTGTGGTCCCTATAGTGAGTCGCTGCCTGCAAAGACACAACT,0.324 ± 0.076
18,GAGACCGCAACTGAAAAGTTGTGGCCCGAATAGTGAGTCGCTGCCTGCAAAGACACAACT,0.405 ± 0.013
19,GAGACCGCAACTGAAAAGTTGTGGACCGAATAGTGAGTCGCTGCCTGCAAAGACACAACT,0.379 ± 0.054
20,GAGACCGCAACTGAAAAGTTGTGGTCCGAATAGTGAGTCGCTGCCTGCAAAGACACAACT,0.205 ± 0.034
21,GAGACCGCAACTGAAAAGTTGTGGGCCGAATAGTGAGTCGCTGCCTGCAAAGACACAACT,1.35 ± 0.035
22,GAGACCGCAACTGAAAAGTTGTGGGCCGCATAGTGAGTCGCTGCCTGCAAAGACACAACT,0.205 ± 0.036
23,GAGACCGCAACTGAAAAGTTGTGGACCGCATAGTGAGTCGCTGCCTGCAAAGACACAACT,0.182 ± 0.016

row,Variant,ligation selection enrichment
1,GAGACCGCAACTGAAAAGTTGTGGCCCGCATAGTGAGTCGCTGCCTGCAAAGACACAACT,0.163 ± 0.053
2,GAGACCGCAACTGAAAAGTTGTGGTCCGCATAGTGAGTCGCTGCCTGCAAAGACACAACT,0.113 ± 0.026
3,GAGACCGCAACTGAAAAGTTGTGGACCGGATAGTGAGTCGCTGCCTGCAAAGACACAACT,0.409 ± 0.0084
4,GAGACCGCAACTGAAAAGTTGTGGCCCGGATAGTGAGTCGCTGCCTGCAAAGACACAACT,0.327 ± 0.049
5,GAGACCGCAACTGAAAAGTTGTGGGCCGGATAGTGAGTCGCTGCCTGCAAAGACACAACT,0.313 ± 0.024
6,GAGACCGCAACTGAAAAGTTGTGGTCCGGATAGTGAGTCGCTGCCTGCAAAGACACAACT,0.133 ± 0.0031
7,GAGACCGCAACTGAAAAGTTGTGGACCGTATAGTGAGTCGCTGCCTGCAAAGACACAACT,0.232 ± 0.081
8,GAGACCGCAACTGAAAAGTTGTGGGCCGTATAGTGAGTCGCTGCCTGCAAAGACACAACT,0.214 ± 0.082
9,GAGACCGCAACTGAAAAGTTGTGGCCCGTATAGTGAGTCGCTGCCTGCAAAGACACAACT,0.207 ± 0.059
10,GAGACCGCAACTGAAAAGTTGTGGTCCGTATAGTGAGTCGCTGCCTGCAAAGACACAACT,0.123 ± 0.096
11,GAGACCGCAACTGAAAAGTTGTGGGCCTAATAGTGAGTCGCTGCCTGCAAAGACACAACT,0.198 ± 0.017
12,GAGACCGCAACTGAAAAGTTGTGGCCCTAATAGTGAGTCGCTGCCTGCAAAGACACAACT,0.186 ± 0.0061
13,GAGACCGCAACTGAAAAGTTGTGGACCTAATAGTGAGTCGCTGCCTGCAAAGACACAACT,0.18 ± 0.017
14,GAGACCGCAACTGAAAAGTTGTGGTCCTAATAGTGAGTCGCTGCCTGCAAAGACACAACT,0.147 ± 0.063
15,GAGACCGCAACTGAAAAGTTGTGGACCTCATAGTGAGTCGCTGCCTGCAAAGACACAACT,0.0933 ± 0.036
16,GAGACCGCAACTGAAAAGTTGTGGCCCTCATAGTGAGTCGCTGCCTGCAAAGACACAACT,0.14 ± 0.025
17,GAGACCGCAACTGAAAAGTTGTGGGCCTCATAGTGAGTCGCTGCCTGCAAAGACACAACT,0.114 ± 0.0038
18,GAGACCGCAACTGAAAAGTTGTGGTCCTCATAGTGAGTCGCTGCCTGCAAAGACACAACT,0.107 ± 0.011
19,GAGACCGCAACTGAAAAGTTGTGGGCCTGATAGTGAGTCGCTGCCTGCAAAGACACAACT,0.624 ± 0.06
20,GAGACCGCAACTGAAAAGTTGTGGACCTGATAGTGAGTCGCTGCCTGCAAAGACACAACT,0.4917 ± 0.0012
21,GAGACCGCAACTGAAAAGTTGTGGCCCTGATAGTGAGTCGCTGCCTGCAAAGACACAACT,0.425 ± 0.013
22,GAGACCGCAACTGAAAAGTTGTGGTCCTGATAGTGAGTCGCTGCCTGCAAAGACACAACT,0.246 ± 0.011
23,GAGACCGCAACTGAAAAGTTGTGGTCCTTATAGTGAGTCGCTGCCTGCAAAGACACAACT,0.232 ± 0.029

row,Variant,ligation selection enrichment
1,GAGACCGCAACTGAAAAGTTGTGGCCCTTATAGTGAGTCGCTGCCTGCAAAGACACAACT,0.213 ± 0.065
2,GAGACCGCAACTGAAAAGTTGTGGGCCTTATAGTGAGTCGCTGCCTGCAAAGACACAACT,0.162 ± 0.02
3,GAGACCGCAACTGAAAAGTTGTGGACCTTATAGTGAGTCGCTGCCTGCAAAGACACAACT,0.117 ± 0.004
4,GAGACCGCAACTGAAAAGTTGTGGTCGAAATAGTGAGTCGCTGCCTGCAAAGACACAACT,0.975 ± 0.19
5,GAGACCGCAACTGAAAAGTTGTGGCCGAAATAGTGAGTCGCTGCCTGCAAAGACACAACT,0.831 ± 0.069
6,GAGACCGCAACTGAAAAGTTGTGGACGAAATAGTGAGTCGCTGCCTGCAAAGACACAACT,0.734 ± 0.16
7,GAGACCGCAACTGAAAAGTTGTGGGCGAAATAGTGAGTCGCTGCCTGCAAAGACACAACT,1.35 ± 0.24
8,GAGACCGCAACTGAAAAGTTGTGGGCGACATAGTGAGTCGCTGCCTGCAAAGACACAACT,1.92 ± 0.12
9,GAGACCGCAACTGAAAAGTTGTGGTCGACATAGTGAGTCGCTGCCTGCAAAGACACAACT,1.74 ± 0.36
10,GAGACCGCAACTGAAAAGTTGTGGACGACATAGTGAGTCGCTGCCTGCAAAGACACAACT,1.41 ± 0.032
11,GAGACCGCAACTGAAAAGTTGTGGCCGACATAGTGAGTCGCTGCCTGCAAAGACACAACT,1.37 ± 0.061
12,GAGACCGCAACTGAAAAGTTGTGGCCGAGATAGTGAGTCGCTGCCTGCAAAGACACAACT,0.853 ± 0.037
13,GAGACCGCAACTGAAAAGTTGTGGACGAGATAGTGAGTCGCTGCCTGCAAAGACACAACT,0.745 ± 0.13
14,GAGACCGCAACTGAAAAGTTGTGGTCGAGATAGTGAGTCGCTGCCTGCAAAGACACAACT,0.7035 ± 0.0067
15,GAGACCGCAACTGAAAAGTTGTGGGCGAGATAGTGAGTCGCTGCCTGCAAAGACACAACT,1.37 ± 0.06
16,GAGACCGCAACTGAAAAGTTGTGGGCGATATAGTGAGTCGCTGCCTGCAAAGACACAACT,21.9 ± 4.1
17,GAGACCGCAACTGAAAAGTTGTGGACGATATAGTGAGTCGCTGCCTGCAAAGACACAACT,16.5 ± 2.7
18,GAGACCGCAACTGAAAAGTTGTGGCCGATATAGTGAGTCGCTGCCTGCAAAGACACAACT,15.8 ± 4.6
19,GAGACCGCAACTGAAAAGTTGTGGTCGATATAGTGAGTCGCTGCCTGCAAAGACACAACT,13.3 ± 3.8
20,GAGACCGCAACTGAAAAGTTGTGGGCGCAATAGTGAGTCGCTGCCTGCAAAGACACAACT,0.289 ± 0.025
